According to PMC5682392, “Site-Directed Mutagenesis Study Revealed Three Important Residues in Hc-DAF-22, a Key Enzyme Regulating Diapause of Haemonchus contortus” (Frontiers in Microbiology, 2017):

B1: Hc-DAF-22 (Haemonchus contortus) (protein)
chain: MGKSKVYVIGVGMTKFCKPGSRDWDYPDMVKEAVNMALDDCSLKYTDIQQATVGYLFGGTCCGQRALYELGFTGIPIFNVNNACASGSSGLYLCKQIIESGNSDVVLACGFEKMATGSLDTQAGNSDGRALSVDNHIQVMSDTYGLFPAPITAQMFANAGKEHMEKYGTKREHFAKIAWKNHLHSVHNPNSQFTKEFSLDQVMNARKIYDFMGLLECSPTSDGSAAAVLCSERFLEQNPRLKPQAVEIVGLELGTDQPSVFKENSNIKMIGFDMIKKISSDLYRNTGLCPNDVQVIELHDCFAPNELITYEALGLCDVGKGGTIVDRGDNTYGGKWVINPSGGSISKGHPIGATGVAQVVELSNQLRGKCGKRQVPNCKIAMQHNIGIGGAGVVGLYRLAYPSSTCPPTTKSSPTMSAFKSDVIFEEIKQRINEEKELVKKIATSFRIIITGEDGTVKKWTIDAKSDTPYVGDDDRKVEVEITIKDSDFMNIAAGKLKADQAFMQGKMKLKGNIAKSMKLKTLLDPKMLKAKI

Tests used:
[1] = test system: CC(=O)CC(=O)SCCNC(=O)CCNC(=O)[C@H](O)C(C)(C)COP(=O)(O)OP(=O)(O)OC[C@H]1O[C@@H](n2cnc3c(N)ncnc32)[C@H](O)[C@@H]1OP(=O)(O)O; assay: purified protein; format: biochemical, Haemonchus contortus; conditions: 60 μM CoA co-substrate, 20 mM MgCl2, 50 mM Tris-Cl pH 8.1 (pH 8.0 also stated), 37°C, varied substrate not given, taken as AcAc-CoA
[2] = substrate: CC(=O)CC(=O)SCCNC(=O)CCNC(=O)[C@H](O)C(C)(C)COP(=O)(O)OP(=O)(O)OC[C@H]1O[C@@H](n2cnc3c(N)ncnc32)[C@H](O)[C@@H]1OP(=O)(O)O; assay: purified protein; format: biochemical, Haemonchus contortus; conditions: 60 μM CoA co-substrate, 20 mM MgCl2, 50 mM Tris-Cl pH 8.1 (pH 8.0 also stated), 37°C, varied substrate not given, taken as AcAc-CoA, text prints 33.765

Molecule	Km [1] [µM]	Vmax [1] [µM/min]	Km [2] [µM]	Vmax [2] [µM/min]
Hc-DAF-22 (Haemonchus contortus; C84S)	51.25	0.693		
Hc-DAF-22 (Haemonchus contortus; H299A)	79.85	1.39		
Hc-DAF-22 (Haemonchus contortus; H349A)	78.50	0.765		
B1			33.76	1.78
